Data reported in FireProtDB (doi:10.1002/pro.5560061014).

B1: Barstar, P11540 (parent)
chain: MKKAVINGEQIRSISDLHQTLKKELALPEYYGENLDALWDCLTGWVEYPLVLEWRQFEQSKQLTENGAESVLQVFREAKAEGCDITIILS

Variants of: B1
Conditions: Bacillus amyloliquefaciens; pH 7.4; 25 °C; Thermal; DSC; Sodium phosphate 50 mM; reversible: yes; structure 1BTA; whole UniProt chain shown

Row | Variant | heat capacity change of unfolding [kcal/mol/K] | unfolding free energy [kcal/mol]
1 | MKKAVINGEQIRSISDLHQTLKKELALPEYYGENLDALWDCLTGWVEYPLVLEWRQFEQSKQLTENGAESVLQVFREAKAEGADITIILS [C83A] | 0.86 | 6.1

Same assay, conditions: Bacillus amyloliquefaciens; pH 7.4; Thermal; DSC; Sodium phosphate 50 mM; reversible: yes; structure 1BTA; whole UniProt chain shown

Row | Variant | Tm [°C] | change of melting temperature, mutant - wild type (higher = more stable) [°C] | heat capacity change of unfolding [kcal/mol/K] | unfolding enthalpy (calorimetric) [kcal/mol]
2 | MKKAVINGEQIRSISDLHQTLKKELALPEYYGENLDALWDCLTGWVEYPLVLEWRQFEQSKQLTENGAESVLQVFREAKAEGADITIILS [C83A] | 71.4 | -1.4 | 0.86 | 66
